This data set is described as follows: yeast display, Sf9 membrane polyspecificity reagent, FACS + sequencing; frameworks hold sequencing errors. The essentials: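 Galactose induction of a Saccharomyces cerevisiae BJ5465 synthetic nanobody display library ran 36–48 hours. The cells were then stained for 1 hour at 4 °C with 10% biotinylated, detergent-solubilized Sf9 membrane reagent, pulled down on streptavidin microbeads and FACS-sorted into low and high (top ~1%) gates on expression and reagent-binding fluorescence. Labels for polyreactivity follow the gate of origin.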
As to “QVQLVESGGGLVQAGGSLRLSCAASGRIFSTYVMGWYRQAPGKERELVAAITWSGGSTYYADSVKGRFTISRDNAKNTVYLQMNSLKPEDTAVYYCAADEIYRYGYWGQGTLVTVSS”, the “polyreactivity (PSR sort gate)” value is reported as “high polyreactivity”.

For the sequence “QVQLVESGGGLVQAGGSLRLSCAASGRIFSVYAMGWYRQAPGKERELVAAITRVGSTNYADSVKGRFTISRDNAKNTVFLLMNSLKQEDTAVYYCARTYSTRGYYYWGQGTQVTVSS”, the “polyreactivity (PSR sort gate)” value is “high polyreactivity”.

With “QVQLVESGGGLVQAGGSLRLSCAASGRIFSVYAMGWYRQAPGKERELVAAITRVGSTNYADSVKGRFTISRDNAKNTVYLQMNSLKPEDTAVYYCAAVARTVPSYSYNYWGQGTQVTVSS”, the “polyreactivity (PSR sort gate)” value is given as “high polyreactivity”.

With “QVQLVESGGGLVQAGGSLRLSCAASGRIFSVYAMGWYRQAPGKERELVASIRSRGSSTYYADSVKGRFTISRDNAKNTVYLQMNSLKPEDTAVYYCAVDVLTVGQSYDHWGQGTQVTVSS”, the “polyreactivity (PSR sort gate)” value is given as “high polyreactivity”.

As for “QVQLVESGGGLVQAGGSLRLSCAASGRIFSVYDMGWYRQAPGKERELVAAIDTSDGSTNYADSVKGRFTISRDNAKNTVYLQMNSLKPEDTAVYYCNATDSYVPFDYWGQGTQVTVSS”, the “polyreactivity (PSR sort gate)” value is “low polyreactivity”.

With “QVQLVESGGGLVQAGGSLRLSCAASGRIFSWYAMGWYRQAPGKERELVAAISWRGGSTYYADSVKGRFTISRDNAKNTVYLQMNSLKPEDTAVYYCIGGPGGYDYWGHGTQVTVSS”, the “polyreactivity (PSR sort gate)” value is listed as “low polyreactivity”.

For the sequence “QVQLVESGGGLVQAGGSLRLSCAASGRIFSYAMGWYRQAPGKERELVAAINWSGDSTYYADSVKGRFTISRDNAKNTVYLQMNSLKPEDTAVYYCNAVSAYWGAYGYWGQGTQVTVSS”, the “polyreactivity (PSR sort gate)” value was “high polyreactivity”.

For the sequence “QVQLVESGGGLVQAGGSLRLSCAASGRIFSYNAMGSDRQAPGKERELVADISSGGSTYYADSVKGRFTISRDNAKNSVYLQMNSLKPEDSAVYYCNADYYAFPWTNEYWGQGTQVTVSS”, the “polyreactivity (PSR sort gate)” value was “high polyreactivity”.

As to “QVQLVESGGGLVQAGGSLRLSCAASGRIFSYNAMGWYRQAPGKERELVAAITFSGGGTYYADSVKGRFTISRDNAKNTVYLQMNSLKPEDTAVYYCAADVPPKYRHRYNLYDYWGQGTQVTVSS”, the “polyreactivity (PSR sort gate)” value is given as “low polyreactivity”.

For “QVQLVESGGGLVQAGGSLRLSCAASGRIFSYYAMGWYRPAPGKERELVAAISSSGGSTYYADSVKGRFTISRDNAKNTVYLQMNSLKPEDTAVYYCRVYTRGEYYSWGQGTQVTVSS”, the “polyreactivity (PSR sort gate)” value is “high polyreactivity”.

On to “QVQLVESGGGLVQAGGSLRLSCAASGRIFSYYAMGWYRQAPGKERELVAAIRWSGGRTYYADSVKGRFTISRDNAKNTVYLQMNSLKPEDTAVYYCAAEGAYRLAYDYWGQGTQVTVSS”, for which the “polyreactivity (PSR sort gate)” value is listed as “high polyreactivity”.

As for “QVQLVESGGGLVQAGGSLRLSCAASGRIFSYYAMGWYRQAPGKERELVATIDRSGDPTSYADSVKGRFTISRDNAMNTVYLKMNSLKPEDTAVYYCAATSKRARYDSWGQGTQVTVSS”, the “polyreactivity (PSR sort gate)” value is on record as “high polyreactivity”.

For the sequence “QVQLVESGGGLVQAGGSLRLSCAASGRIFSYYAMGWYRQAPGKEREMVAAISGNGGSTYYADSVKGRFTISRDNAKNTVYLQMNSLKPEDTAVYYCAADWWSSDWAYLYPYSYDYWGQGTQVTVSS”, the “polyreactivity (PSR sort gate)” value is reported as “low polyreactivity”.

On to “QVQLVESGGGLVQAGGSLRLSCAASGRIFSYYAMGWYRQAPWKERELVAAISSSGGSTYYADSVKGRFTISRDNAKNTVYLQMNSLKPEDTEVYYCAKLLYGFGRYGYWGQGTQVTVSS”, for which the “polyreactivity (PSR sort gate)” value was “high polyreactivity”.

Regarding “QVQLVESGGGLVQAGGSLRLSCAASGRIFSYYDMGWYRQAPGKERELVATIRWSTSSTYADSVKGRFTISRDNAKPTVYLQMNILKPEDTAVYYCNAQYSQVNGYDYWGQGTQVTVSS”, the “polyreactivity (PSR sort gate)” value is on record as “low polyreactivity”.

Take “QVQLVESGGGLVQAGGSLRLSCAASGRIFSYYTLGWYRQAPGKERELVAAIRISSGGTYYADSVKGRFTISRDNAKNTVYLQMNSLKPEDTAVYYCAARYYGFPSKYDYWGQGTQVTVSS”: the “polyreactivity (PSR sort gate)” value is recorded as “high polyreactivity”.

Turning to “QVQLVESGGGLVQAGGSLRLSCAASGRIFSYYVMGWNRQAPGKERELVAAITSGGSTNYADSEKGRFTISRDNAKNTVYLQMNSLKPEDTAVYYCNRAYTYINRLYGYWGQGTQVTVSS”, the “polyreactivity (PSR sort gate)” value was “high polyreactivity”.

As to “QVQLVESGGGLVQAGGSLRLSCAASGRIFTANAMGWYRQAPGKERELVAAISWRGGSTYYADSVKGRFTISRDNAKNSVYLQLNSLKPEDTAVYYCAAQRYAPYRYEYWGQGTHVTVSS”, the “polyreactivity (PSR sort gate)” value is listed as “high polyreactivity”.

As to “QVQLVESGGGLVQAGGSLRLSCAASGRIFTAYAMGWYRQAPGKERELVASITTSGTTYYADSVKGRFTISRDNSKNTVYLQMNSLKPEDTAVYYCAADYYGYVQGGIQYGYYYLGQGTQVTVSS”, the “polyreactivity (PSR sort gate)” value is “low polyreactivity”.

Turning to “QVQLVESGGGLVQAGGSLRLSCAASGRIFTAYHMGWYRQAPGKESELVAAITRSSGSTYYADSVKGRFTISRDNAKNTVYLQMIRLKPEVTAVYYCATDGEFWGYDSWGQGTQVTVSS”, the “polyreactivity (PSR sort gate)” value is on record as “low polyreactivity”.

On to “QVQLVESGGGLVQAGGSLRLSCAASGRIFTDYTMGWYRHAPGKERELDAAISKGGSGTYYADSVKGRFTISRDNAKNTVYLQMNSLKPEDTAVYYCNKVISTGEYDYWGQGTQVTVSS”, for which the “polyreactivity (PSR sort gate)” value is given as “low polyreactivity”.

Take “QVQLVESGGGLVQAGGSLRLSCAASGRIFTFYAMGWYRQAPGKARELVASITGGGNTYYADSVKGRFTISRDNAKNTVYLQMNSLKPEDTAVYYCAAGFSYFTSVLSLDRYYYWGQGTQVTVSS”: the “polyreactivity (PSR sort gate)” value is on record as “low polyreactivity”.

In the case of “QVQLVESGGGLVQAGGSLRLSCAASGRIFTFYAMGWYRQAPGKERELVAAISSGGSTYYADSVKGRFTISRDNAKNTVFLQMNILKPEDTAVYYCAAVPVWYADYDYWGQGTQVTVSS”, the “polyreactivity (PSR sort gate)” value is given as “low polyreactivity”.

“QVQLVESGGGLVQAGGSLRLSCAASGRIFTFYARGLDRQAPGKEREMVAAISSGGSTYYADSVKGRFTISRDNAKNTVYLQMNSLKPEDTAVYYCATQGARYYHTYGYWGQGTLVTVSS”: the “polyreactivity (PSR sort gate)” value was “low polyreactivity”.

As to “QVQLVESGGGLVQAGGSLRLSCAASGRIFTGNAMGWYRQAPGKERELVAAITGRGGNTYYADSGKGRFTISRDNAKNTVYLLMNSLKPEDTAGYYGAKVFFHTPIVPEYDYWGQGTHVTVSS”, the “polyreactivity (PSR sort gate)” value is “low polyreactivity”.

Regarding “QVQLVESGGGLVQAGGSLRLSCAASGRIFTGNAMGWYRQAPGKERELVASITYSDGSTYYADSVKGRFTISRDNAKNTVYFQMNSLKPEDTAVYYCAADILWGQGTQVTVSS”, the “polyreactivity (PSR sort gate)” value is listed as “low polyreactivity”.

Regarding “QVQLVESGGGLVQAGGSLRLSCAASGRIFTGNVMGLYRQAPGKERELVAAITYRGGSTYYADSVKGRFTISRDNAKNTVYLQMNSLKPEDTAVYYCNTGWDPYGYDYWGQGTQVTVSS”, the “polyreactivity (PSR sort gate)” value was “low polyreactivity”.

For “QVQLVESGGGLVQAGGSLRLSCAASGRIFTGNVMGWYRQAPGKERELVAAISVSGGRTYYADSVKGRFTISRDNAKNNVYLQMNSLKPEDTAVYYCNARFSRVWYGGDYWGQGTQVTVSS”, the “polyreactivity (PSR sort gate)” value is on record as “high polyreactivity”.

For the sequence “QVQLVESGGGLVQAGGSLRLSCAASGRIFTGYAMGWYRQAPGKERELVATIRSRGGGTYYADSVKGRFTISRDNAKNTVYLQMNSLKPEDTAVYYCAADDYYYYFGTRYGYWRQGTQVTVSS”, the “polyreactivity (PSR sort gate)” value is on record as “low polyreactivity”.

For the sequence “QVQLVESGGGLVQAGGSLRLSCAASGRIFTHNVMGWYRQAPGTERELVAAISGGGGSTYYADSVKGRFTLSRDNAKNNVYKQMNSLKPEDTAVYYCAKDNHYEADRYDYWGQGTQVTVSS”, the “polyreactivity (PSR sort gate)” value was “low polyreactivity”.

On to “QVQLVESGGGLVQAGGSLRLSCAASGRIFTINAMGWYRQAPGKERELVASIRSTGGSTYYADSVKGRFTISRDNAKNTVYLQMNSLKPEDTAVYYCAADGGVAWGYGYWGQGTQVTVSS”, for which the “polyreactivity (PSR sort gate)” value is given as “low polyreactivity”.

On to “QVQLVESGGGLVQAGGSLRLSCAASGRIFTIYAMGWYRQAPGKERELVAAISDRGTRTYYADSVKGRFTISRDNAKNTVYLQMNSLKPEDTAVYYCATDALYTYGYYYWGQGTQVTVSS”, for which the “polyreactivity (PSR sort gate)” value is “low polyreactivity”.

Regarding “QVQLVESGGGLVQAGGSLRLSCAASGRIFTIYAMGWYRQAPGKERELVAAITRGGNTNYADSVKGRFTISRDNAKNTVYLQMNSLKPEDTAVYDGAVGSRSWPYDYWGQGSQVTVSS”, the “polyreactivity (PSR sort gate)” value was “high polyreactivity”.

As to “QVQLVESGGGLVQAGGSLRLSCAASGRIFTIYAMGWYRQAPGKERELVATISRRGGSTYYADSVKGRFTISRDNAKNTVYFQMNSLKPEETAVYYCAADSVITWWAYDYWGQGTQVTVSS”, the “polyreactivity (PSR sort gate)” value is listed as “high polyreactivity”.

For “QVQLVESGGGLVQAGGSLRLSCAASGRIFTIYSMGWYRQAPGKERELVATISKSGGITYYADSVKGRFTISRDNAKNTVYLQMNSLKPEDTAVYYCAAAWYYSSRGFHATWGHDYWGQGTQVTVSS”, the “polyreactivity (PSR sort gate)” value is on record as “low polyreactivity”.

In the case of “QVQLVESGGGLVQAGGSLRLSCAASGRIFTIYTMGWYRQAPGKERELVAAISVNGGRTYYADSVKGRFTISRDNAKNTVYLQMNSLKPEDTAVYYCAARRRFGYHQQRYDYWGQGTQVTVSS”, the “polyreactivity (PSR sort gate)” value is reported as “high polyreactivity”.

With “QVQLVESGGGLVQAGGSLRLSCAASGRIFTLYTMGWYRQAPGKERELVARITRSGGTTYYADSVKGRFTISRDNSKNTVYLQMNSLKPEDTAVYYCNVDDYFWPGAKFDYWGQGTQVTVSS”, the “polyreactivity (PSR sort gate)” value is “low polyreactivity”.

Take “QVQLVESGGGLVQAGGSLRLSCAASGRIFTPNAMGWCRQAPGKERELVAAITWSGDNTYADSVKGRFTISRDNAKNTVYLQMNSLKPEDTAVYYCAAAYGYGHKKYGYWGQGTQVTVSS”: the “polyreactivity (PSR sort gate)” value was “low polyreactivity”.

On to “QVQLVESGGGLVQAGGSLRLSCAASGRIFTPYAMGWYRQAPRKERELVAVIRDGSTYYADSVKGRFTISRDNAKYNVYLQMKSLIPEDTAVYYCRYDIWVWWSGAYDYWGQGTQVTVSS”, for which the “polyreactivity (PSR sort gate)” value is recorded as “low polyreactivity”.

In the case of “QVQLVESGGGLVQAGGSLRLSCAASGRIFTPYAMGWYRQAPVKERELVAVIRDGSTYYADSVKGRFTISRDNAKNTVDLLMNSLKPEDTAVYYCRYDIWVWWSGAYDYWGQGTQVTVSS”, the “polyreactivity (PSR sort gate)” value is “low polyreactivity”.

Consider “QVQLVESGGGLVQAGGSLRLSCAASGRIFTQYTMGWYRQAPGKERELVAAISRGGGSTYYADSVKGRFTISRDNAKNTVYLQMNSLKPEDTAVYYCAAIRREVVAGDYWGQGTQVTVSS”, for which the “polyreactivity (PSR sort gate)” value is reported as “high polyreactivity”.

The values are drawn from the nanobody polyreactivity screen of Harvey et al. (2022).
